Measured values as given in US20090100532A1, “TRANSGENIC MICE EXPRESSING HYPERSENSITIVE NICOTINIC RECEPTORS” (CALIFORNIA INSTITUTE OF TECHNOLOGY, priority 2007, published 2009).

Columns and labels:
α4-CFP (mouse) = α4-CFP (mouse) (UniProt O70174); assay: acceptor photobleaching FRET, N2a cells, untagged β2 coexpressed
[1] = biological target: CFP-labeled GluCl β subunit (UniProt Q17328); assay: acceptor photobleaching FRET, N2a cells; specificity control
β2-CFP (mouse) = β2-CFP (mouse) (UniProt Q9ERK7); assay: acceptor photobleaching FRET, N2a cells, within the same α4β2 pentamer
Chain of β2-CFP (mouse) (Q9ERK7 26-501): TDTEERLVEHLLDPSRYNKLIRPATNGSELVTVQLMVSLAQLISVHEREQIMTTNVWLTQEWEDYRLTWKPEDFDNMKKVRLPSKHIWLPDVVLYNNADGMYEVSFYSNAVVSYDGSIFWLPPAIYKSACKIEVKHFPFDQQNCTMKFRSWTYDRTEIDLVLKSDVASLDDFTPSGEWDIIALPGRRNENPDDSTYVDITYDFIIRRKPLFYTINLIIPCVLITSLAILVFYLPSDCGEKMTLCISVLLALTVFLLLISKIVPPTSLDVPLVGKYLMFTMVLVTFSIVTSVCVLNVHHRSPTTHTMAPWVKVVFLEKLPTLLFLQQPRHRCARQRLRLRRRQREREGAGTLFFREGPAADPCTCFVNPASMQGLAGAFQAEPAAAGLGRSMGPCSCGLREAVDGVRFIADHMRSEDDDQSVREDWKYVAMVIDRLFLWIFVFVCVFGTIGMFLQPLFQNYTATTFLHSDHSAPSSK

Chain of CFP-labeled GluCl β subunit (Q17328 23-434): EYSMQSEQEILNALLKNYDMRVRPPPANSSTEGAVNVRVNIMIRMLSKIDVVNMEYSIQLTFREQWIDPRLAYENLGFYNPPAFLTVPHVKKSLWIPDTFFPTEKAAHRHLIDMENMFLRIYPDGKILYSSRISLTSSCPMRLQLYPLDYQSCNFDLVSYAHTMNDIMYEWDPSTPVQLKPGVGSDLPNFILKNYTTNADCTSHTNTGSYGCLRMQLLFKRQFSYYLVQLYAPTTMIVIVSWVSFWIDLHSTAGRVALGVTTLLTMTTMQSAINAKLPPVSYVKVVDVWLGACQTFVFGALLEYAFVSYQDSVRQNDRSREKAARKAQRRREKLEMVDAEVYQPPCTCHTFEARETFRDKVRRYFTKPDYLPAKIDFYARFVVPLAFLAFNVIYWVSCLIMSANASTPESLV
Chain of β2-YFP (Q9ERK7 26-501): as the sequence (Q9ERK7 26-501) above
Chain of α4-YFP (O70174 31-629): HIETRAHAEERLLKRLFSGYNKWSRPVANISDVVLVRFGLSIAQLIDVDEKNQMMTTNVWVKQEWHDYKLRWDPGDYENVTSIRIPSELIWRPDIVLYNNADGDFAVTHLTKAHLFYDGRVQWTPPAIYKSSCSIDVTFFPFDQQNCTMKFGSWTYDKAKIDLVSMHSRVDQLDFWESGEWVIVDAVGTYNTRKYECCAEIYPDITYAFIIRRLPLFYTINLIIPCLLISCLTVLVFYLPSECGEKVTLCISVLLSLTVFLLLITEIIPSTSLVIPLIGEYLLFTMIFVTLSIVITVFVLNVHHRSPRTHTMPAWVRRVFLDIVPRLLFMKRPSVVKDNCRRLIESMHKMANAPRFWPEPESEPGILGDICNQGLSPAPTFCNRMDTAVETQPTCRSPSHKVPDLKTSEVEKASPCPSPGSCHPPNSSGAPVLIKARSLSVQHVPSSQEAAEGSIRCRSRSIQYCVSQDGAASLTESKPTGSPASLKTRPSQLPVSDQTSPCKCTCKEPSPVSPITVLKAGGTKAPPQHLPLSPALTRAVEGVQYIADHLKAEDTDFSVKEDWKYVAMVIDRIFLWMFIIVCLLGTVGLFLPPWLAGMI
Chain of α4-CFP (mouse) (O70174 31-629): as above

| Substance | FRET E [1] [%] | other results |
| --- | --- | --- |
| α4-YFP (from UniProt O70174 31-629) (receptor) |  | FRET E (α4-CFP (mouse)): 22.2% |
| α6-YFP^A405 (from UniProt Q9R0W9 31-405; Q9R0W9 406-494) (receptor) | 14 |  |
| β2-YFP (from UniProt Q9ERK7 26-501) (receptor) |  | FRET E (β2-CFP (mouse)): 16.3% |
| β3-YFP^P379 (from UniProt Q8BMN3 31-379; Q8BMN3 380-464) (receptor) | 6 |  |
